From patent US20190177437A1 (SINGH MOLECULAR MEDICINE, published 2019)

How the values were obtained:
[1] = target: T1, active human TNF-α full length protein (human, UniProt P01375 77-233); experiment: ELISA, TNF coat 0.5 µg/mL, sdAb 1 µg/mL, anti-llama 1:5,000, HRP 1:25,000
[2] = target: T1, active human TNF-α full length protein; experiment: ELISA, TNF coat 0.5 µg/mL, sdAb 1 µg/mL, anti-llama 1:5,000, HRP 1:50,000
[3] = target: T1, active human TNF-α full length protein; experiment: ELISA, TNF coat 0.25 µg/mL, sdAb 1 µg/mL, anti-llama 1:5,000, HRP 1:25,000
[4] = target: T1, active human TNF-α full length protein; experiment: ELISA, TNF coat 0.25 µg/mL, sdAb 1 µg/mL, anti-llama 1:5,000, HRP 1:50,000
[5] = target: T1, active human TNF-α full length protein; experiment: ELISA, TNF coat 0.5 µg/mL, sdAb 1 µg/mL, anti-llama 1:10,000, HRP 1:25,000
[6] = target: T1, active human TNF-α full length protein; experiment: ELISA, TNF coat 0.5 µg/mL, sdAb 1 µg/mL, anti-llama 1:10,000, HRP 1:50,000
[7] = target: T1, active human TNF-α full length protein; experiment: ELISA, TNF coat 0.125 µg/mL, sdAb 1 µg/mL, anti-llama 1:5,000, HRP 1:25,000
[8] = target: T1, active human TNF-α full length protein; experiment: ELISA, TNF coat 0.125 µg/mL, sdAb 1 µg/mL, anti-llama 1:5,000, HRP 1:50,000
[9] = target: T1, active human TNF-α full length protein; experiment: ELISA, TNF coat 0.25 µg/mL, sdAb 1 µg/mL, anti-llama 1:10,000, HRP 1:25,000
[10] = target: T1, active human TNF-α full length protein; experiment: ELISA, TNF coat 0.25 µg/mL, sdAb 1 µg/mL, anti-llama 1:10,000, HRP 1:50,000
[11] = target: T1, active human TNF-α full length protein; experiment: ELISA, TNF coat 0.125 µg/mL, sdAb 1 µg/mL, anti-llama 1:10,000, HRP 1:25,000
[12] = target: T1, active human TNF-α full length protein; experiment: ELISA, TNF coat 0.125 µg/mL, sdAb 1 µg/mL, anti-llama 1:10,000, HRP 1:50,000
[13] = target: T1, active human TNF-α full length protein

T1 sequence (P01375 77-233 limits assumed): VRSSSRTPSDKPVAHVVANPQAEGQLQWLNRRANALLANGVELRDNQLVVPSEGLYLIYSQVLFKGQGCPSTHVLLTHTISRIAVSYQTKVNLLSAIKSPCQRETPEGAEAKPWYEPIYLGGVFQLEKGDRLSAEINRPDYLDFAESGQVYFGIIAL

Signal/Noise Ratio [1] [ratio]	Signal/Noise Ratio [2] [ratio]	Signal/Noise Ratio [3] [ratio]	Signal/Noise Ratio [4] [ratio]	Signal/Noise Ratio [5] [ratio]	Signal/Noise Ratio [6] [ratio]	Signal/Noise Ratio [7] [ratio]	Signal/Noise Ratio [8] [ratio]	Signal/Noise Ratio [9] [ratio]	Signal/Noise Ratio [10] [ratio]	Signal/Noise Ratio [11] [ratio]	Signal/Noise Ratio [12] [ratio]	binding result [13]	Binder
2	1.9	1.5	1.4	1.7	1.5	1.1	1.1	1.4	1.3	1.1	0.9	no binding (tested: 1 µg/mL)	anti-TNF-α VHH62 (SEQ ID NO:47) sdAb (VHH) VHH: QVQLVESGGGPVQAGETLRLSCTASGFTFAEADMGWYRQAPGHECELVSTITTEGITSEASSYYADSVRGRFTISRDNAKNMVYLQMNSLKPEDTAVYYCAPDPYAYSTYSDYCSWAQGTQGTLVTVSS
8	7.5	3.2	2.4	5.9	3.7	1.6	1.6	2.1	1.9	1.5	1.3	–	anti-TNF-α VHH69 (SEQ ID NO:46) sdAb (VHH) VHH: EVQLVESGGGSVLAGGSLRLSCVASGFTSRYNYMAWFRQAPGKEREGVATIGTASGSADYYGSVKDRFTISQDNAKNTVYLQMNSLKPEDTAMYYCAARTYGTISLTPSDYRYWGQGTLVTVSS
